Patent US20050003420, “Recycled mutagenesis of restriction endonuclease toward enhanced catalytic activity” (published 2005)

Legend:
BsoBI D246Q D246Q = biological target: T1, BsoBI D246Q D246Q (UniProt P70985); test: cleavage_in_vitro; settings: cell extract
T1 sequence: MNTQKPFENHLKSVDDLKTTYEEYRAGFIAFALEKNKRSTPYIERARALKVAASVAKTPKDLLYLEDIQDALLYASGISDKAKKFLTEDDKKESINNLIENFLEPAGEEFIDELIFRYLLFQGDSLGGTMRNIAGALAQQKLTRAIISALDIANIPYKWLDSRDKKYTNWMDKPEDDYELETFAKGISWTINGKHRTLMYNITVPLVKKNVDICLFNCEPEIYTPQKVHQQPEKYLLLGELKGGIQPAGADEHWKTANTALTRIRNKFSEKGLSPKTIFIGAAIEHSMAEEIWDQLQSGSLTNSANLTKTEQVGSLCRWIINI

BsoBI D246E D246E = biological target: T2, BsoBI D246E D246E (UniProt P70985); test: cleavage_in_vitro; settings: lambda or pUC19; purified D246E also lacked measurable cleavage
T2 sequence: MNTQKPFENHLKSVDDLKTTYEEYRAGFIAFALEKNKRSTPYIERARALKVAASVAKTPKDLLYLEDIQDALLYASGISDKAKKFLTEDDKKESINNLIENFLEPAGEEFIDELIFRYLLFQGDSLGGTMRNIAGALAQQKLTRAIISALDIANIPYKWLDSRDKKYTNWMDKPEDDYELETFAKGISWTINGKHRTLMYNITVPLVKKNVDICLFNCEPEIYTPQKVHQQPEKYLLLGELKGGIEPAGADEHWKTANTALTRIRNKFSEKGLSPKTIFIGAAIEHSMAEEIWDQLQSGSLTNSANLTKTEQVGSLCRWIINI

BsoBI D246N D246N = biological target: T3, BsoBI D246N D246N (UniProt P70985); test: cleavage_in_vitro; settings: cell extract
T3 sequence: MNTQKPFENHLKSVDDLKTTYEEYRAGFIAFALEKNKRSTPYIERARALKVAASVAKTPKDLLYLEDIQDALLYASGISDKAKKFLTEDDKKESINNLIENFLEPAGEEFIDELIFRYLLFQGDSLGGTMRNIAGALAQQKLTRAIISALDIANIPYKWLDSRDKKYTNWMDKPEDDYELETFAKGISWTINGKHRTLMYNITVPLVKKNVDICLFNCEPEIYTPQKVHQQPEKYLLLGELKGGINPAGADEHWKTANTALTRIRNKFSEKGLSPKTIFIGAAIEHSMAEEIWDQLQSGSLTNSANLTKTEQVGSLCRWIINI

[1] = biological target: BsoBI pseudorevertant 6c E46V/D61E/S94T/D246A (UniProt P70985); test: cleavage_in_vitro; settings: pUC19, 65 C
PvuII E18K/K93R/R105H = biological target: T4, PvuII E18K/K93R/R105H (UniProt P23657 P23657:1-157, E18K/K93R/R105H); test: cleavage_in_vitro; NEB buffer 2, 37 C, 1.5 h; settings: tags: His-tag; chain copies: 2 inferred
T4 sequence: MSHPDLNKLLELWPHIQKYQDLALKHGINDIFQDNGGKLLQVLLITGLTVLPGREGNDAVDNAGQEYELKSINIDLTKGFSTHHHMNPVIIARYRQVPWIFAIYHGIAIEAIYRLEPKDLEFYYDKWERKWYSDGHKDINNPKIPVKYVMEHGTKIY
From the text: (§1) In order to test the cleavage specificity of the mutant endonucleases, two substrates were designed such that a limited number of sites related to the PvuII cognate sequence were present. A 1042 bp DNA substrate, corresponding to bases 317-1359 of the pUC19 sequence (GenBank #L09137), was amplified from pUC19. This substrate contains a unique PvuII site 631 bp from one end. A second, 1270 bp DNA substrate was amplified from the region corresponding to bases 6010-7280 of pTYB1 (New England Biolabs, Beverly, Mass.). This substrate contains a unique MfeI site 1022 bp from one end, and a unique PmlI site 810 bp from the same end. These substrates were used to determine the substrate specificity of PvuII (K93R) and its variants K93R/R105H, K93R/V50A and E18K/K93R/R105H. PvuII restriction digestion was assayed in NEB buffer 2 at 37° C. for 1.5 hour (New England Biolabs, Inc., Beverly, Mass.). […] The amount of protein required to cleave the MfeI/PmlI substrate at the MfeI site is >10 μg for the K93R mutant, 0.1 μg for K93R/105H, for 0.1 μg K93R/V50A, and 0.03 μg for K93R/R105H/E18K. The amount of protein required to cleave the MfeI/PmlI substrate at the PmlI site is >10 μg for the K93R mutant, 3 μg for K93R/105H, 3 μg for K93R/V50A, and 3 μg for K93R/R105H/E18K. Cleavage of the MfeI or PmlI sites by the wild-type PvuII endonuclease was not detectible (data not shown). It is clear that, compared to K93R, these K93R variants show an increase in specific cleavage activity at CAATTG and […], while maintaining similar levels of cleavage activity at CAGCTG.

PvuII K93R/R105H = biological target: T5, PvuII K93R/R105H (UniProt P23657 P23657:1-157, K93R/R105H); test: cleavage_in_vitro; NEB buffer 2, 37 C, 1.5 h; settings: tags: His-tag; chain copies: 2 inferred
T5 sequence: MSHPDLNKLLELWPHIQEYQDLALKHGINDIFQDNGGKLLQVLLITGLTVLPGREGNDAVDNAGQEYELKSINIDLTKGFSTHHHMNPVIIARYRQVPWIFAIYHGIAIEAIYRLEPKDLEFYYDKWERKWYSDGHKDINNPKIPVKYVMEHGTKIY
From the text: as §1

PvuII K93R/V50A = biological target: T6, PvuII K93R/V50A (UniProt P23657 P23657:1-157, K93R/V50A); test: cleavage_in_vitro; NEB buffer 2, 37 C, 1.5 h; settings: tags: His-tag; chain copies: 2 inferred
T6 sequence: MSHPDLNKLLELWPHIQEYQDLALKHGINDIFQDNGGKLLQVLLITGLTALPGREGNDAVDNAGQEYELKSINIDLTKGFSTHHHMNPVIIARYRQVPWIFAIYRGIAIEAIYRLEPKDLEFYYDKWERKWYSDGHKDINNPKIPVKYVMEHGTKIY
From the text: as §1

[2] = biological target: T7, BsoBI restriction endonuclease (UniProt P70985 P70985:1-323); test: cleavage_in_vitro; pUC19, NEB buffer 2, 65 C; settings: tags: untagged, expressed from pRRS-bsoBIR in E. coli ER2683; chain copies: 2 inferred
T7 sequence: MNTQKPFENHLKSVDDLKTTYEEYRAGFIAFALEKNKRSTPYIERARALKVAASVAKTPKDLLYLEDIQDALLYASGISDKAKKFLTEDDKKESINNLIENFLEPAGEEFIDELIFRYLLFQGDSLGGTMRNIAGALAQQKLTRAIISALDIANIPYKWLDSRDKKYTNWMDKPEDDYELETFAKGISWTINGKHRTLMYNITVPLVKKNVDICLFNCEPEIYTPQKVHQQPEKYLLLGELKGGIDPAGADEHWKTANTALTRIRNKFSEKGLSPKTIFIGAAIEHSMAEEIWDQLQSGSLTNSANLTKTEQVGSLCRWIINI

[3] = biological target: T8, BsoBI pseudorevertant 9c (same as 11c) (UniProt P70985 P70985:1-323, R38S/L62I/D112Y/N169T/L238F/D246A/A248S); test: cleavage_in_vitro; pUC19, 65 C; protein temperature sensitive; settings: chain copies: 2 inferred
T8 sequence: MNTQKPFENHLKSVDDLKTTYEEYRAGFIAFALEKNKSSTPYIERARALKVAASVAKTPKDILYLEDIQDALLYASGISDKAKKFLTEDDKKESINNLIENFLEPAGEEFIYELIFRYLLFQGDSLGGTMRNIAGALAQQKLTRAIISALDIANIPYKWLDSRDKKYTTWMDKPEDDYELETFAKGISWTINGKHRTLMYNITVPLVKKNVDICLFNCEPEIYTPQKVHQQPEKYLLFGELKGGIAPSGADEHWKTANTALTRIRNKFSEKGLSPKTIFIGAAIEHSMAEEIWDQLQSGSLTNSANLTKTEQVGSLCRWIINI

BsoBI pseudorevertant 8d = biological target: T9, BsoBI pseudorevertant 8d (UniProt P70985 P70985:1-323, N36K/D246A); test: cleavage_in_vitro; pUC19, 65 C; settings: tags: partially purified; chain copies: 2 inferred
T9 sequence: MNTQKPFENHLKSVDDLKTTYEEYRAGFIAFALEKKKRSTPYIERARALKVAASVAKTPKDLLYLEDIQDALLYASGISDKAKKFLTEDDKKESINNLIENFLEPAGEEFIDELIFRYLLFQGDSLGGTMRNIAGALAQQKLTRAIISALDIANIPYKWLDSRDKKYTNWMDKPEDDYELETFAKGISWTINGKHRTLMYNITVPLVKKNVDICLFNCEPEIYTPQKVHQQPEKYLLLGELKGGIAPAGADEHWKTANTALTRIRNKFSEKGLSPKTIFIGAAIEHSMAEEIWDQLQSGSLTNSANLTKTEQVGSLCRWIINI

[4] = biological target: T10, BsoBI pseudorevertant 29e (UniProt P70985 P70985:1-323, D246A/C317W); test: cleavage_in_vitro; pUC19, 65 C; settings: chain copies: 2 inferred
T10 sequence: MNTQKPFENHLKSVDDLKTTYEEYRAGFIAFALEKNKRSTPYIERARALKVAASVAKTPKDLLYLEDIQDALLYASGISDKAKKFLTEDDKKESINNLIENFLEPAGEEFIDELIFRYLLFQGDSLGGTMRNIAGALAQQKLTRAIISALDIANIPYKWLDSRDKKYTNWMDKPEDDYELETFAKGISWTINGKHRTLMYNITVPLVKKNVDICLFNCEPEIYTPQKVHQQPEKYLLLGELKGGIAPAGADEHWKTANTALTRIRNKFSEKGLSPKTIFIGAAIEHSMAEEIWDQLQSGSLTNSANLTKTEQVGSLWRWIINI

PvuII K93R = biological target: T11, PvuII K93R (UniProt P23657 P23657:1-157, K93R); test: cleavage_in_vitro; NEB buffer 2, 37 C, 1.5 h; settings: tags: His-tag; chain copies: 2 inferred
T11 sequence: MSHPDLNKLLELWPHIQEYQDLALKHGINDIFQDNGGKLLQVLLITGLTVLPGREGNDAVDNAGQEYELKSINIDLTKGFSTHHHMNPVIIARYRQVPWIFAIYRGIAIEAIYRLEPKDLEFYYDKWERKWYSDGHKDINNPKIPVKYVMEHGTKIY
From the text: as §1

lambda DNA (8 BsoBI sites)
activity (BsoBI D246Q D246Q): < 0.001 % of wt
activity (BsoBI D246E D246E): < 0.001 % of wt
activity (BsoBI D246N D246N): < 0.001 % of wt

GTACCCGGGGAT (double strand) [pUC19/pZZ1 CCCGGG site]
activity [1]: 4 % of wt

B1: pTYB1 1270 bp PCR fragment, MfeI site (dsDNA)
DNA 1: CAATTG
DNA 2: CAATTG
activity (PvuII E18K/K93R/R105H): 0.03 ug protein required to cleave
activity (PvuII K93R/R105H): 0.1 ug protein required to cleave
activity (PvuII K93R/V50A): 0.1 ug protein required to cleave

B2: pUC19/pZZ1 CCCGGG site (dsDNA)
DNA 1: GTACCCGGGGAT
DNA 2: ATCCCCGGGTAC
activity [2]: 100 % of wt
activity [3]: 10 % of wt
activity (BsoBI pseudorevertant 8d): 5 % of wt
activity [4]: 4 % of wt

B3: pUC19 1042 bp PCR fragment, unique PvuII site (dsDNA)
DNA 1: CAGCTG
DNA 2: CAGCTG
activity (PvuII K93R): 0.03 ug protein required to cleave
activity (PvuII E18K/K93R/R105H): 0.03 ug protein required to cleave
activity (PvuII K93R/R105H): 0.01 ug protein required to cleave
activity (PvuII K93R/V50A): 0.01 ug protein required to cleave
